From paper PMC10786891, “Massively parallel profiling of RNA-targeting CRISPR-Cas13d” come the findings set out here.

The Kd is the free concentration of one partner at which half of the binding sites on the other are occupied at equilibrium, for simple one-to-one binding.

The chains are these.
B1: target 2 MT 5'PFS GAG 3'PFS UUA (mixed)
RNA 1: CACCCGUGCAAAAUUGCAGGGGUCUAAAACCUUCUCCAAAUUGUUUCAUCCU
RNA 2: GGGAAUGGAUCCACAUCUACGAAUUCGAGAGGAUGAAACAAUUUGGAGAAGUUAAGAUCGGAAGAGCACACGU
B2: target 2 MT 5'PFS GGG 3'PFS AAG (mixed)
RNA 1: B1 RNA 1
RNA 2: B1 RNA 2 with A28G, U52A, U53A, A54G
B3: target 2 MT 5'PFS GUU 3'PFS AGA (mixed)
RNA 1: B1 RNA 1
RNA 2: B1 RNA 2 with A28U, G29U, U52A, U53G
B4: target 2 MT 5'PFS AGC 3'PFS AGA (mixed)
RNA 1: B1 RNA 1
RNA 2: B1 RNA 2 with G27A, A28G, G29C, U52A, U53G
B5: target 2 MT 5'PFS AGC 3'PFS UAU (mixed)
RNA 1: B1 RNA 1
RNA 2: B1 RNA 2 with G27A, A28G, G29C, U53A, A54U
B6: target 2 MT 5'PFS UCA 3'PFS UCA (mixed)
RNA 1: B1 RNA 1
RNA 2: B1 RNA 2 with G27U, A28C, G29A, U53C
B7: target 2 MT 5'PFS AGC 3'PFS AGG (mixed)
RNA 1: B1 RNA 1
RNA 2: B1 RNA 2 with G27A, A28G, G29C, U52A, U53G, A54G
B8: target 2 MT 5'PFS AGC 3'PFS UAC (mixed)
RNA 1: B1 RNA 1
RNA 2: B1 RNA 2 with G27A, A28G, G29C, U53A, A54C
B9: target 2 MT 5'PFS CUC 3'PFS UAG (mixed)
RNA 1: B1 RNA 1
RNA 2: B1 RNA 2 with G27C, A28U, G29C, U53A, A54G
B10: target 2 MT 5'PFS CGG 3'PFS UAA (mixed)
RNA 1: B1 RNA 1
RNA 2: B1 RNA 2 with G27C, A28G, U53A
B11: target 2 MT 5'PFS GCU 3'PFS CUU (mixed)
RNA 1: B1 RNA 1
RNA 2: B1 RNA 2 with A28C, G29U, U52C, A54U
B12: target 2 MT 5'PFS AUA 3'PFS CUA (mixed)
RNA 1: B1 RNA 1
RNA 2: B1 RNA 2 with G27A, A28U, G29A, U52C
B13: target 2 MT 5'PFS CGG 3'PFS UAU (mixed)
RNA 1: B1 RNA 1
RNA 2: B1 RNA 2 with G27C, A28G, U53A, A54U
B14: target 2 MT 5'PFS CUC 3'PFS UAC (mixed)
RNA 1: B1 RNA 1
RNA 2: B1 RNA 2 with G27C, A28U, G29C, U53A, A54C
B15: target 2 MT 5'PFS AGC 3'PFS UAA (mixed)
RNA 1: B1 RNA 1
RNA 2: B1 RNA 2 with G27A, A28G, G29C, U53A
B16: target 2 MT 5'PFS GUU 3'PFS AGC (mixed)
RNA 1: B1 RNA 1
RNA 2: B1 RNA 2 with A28U, G29U, U52A, U53G, A54C
B17: target 2 MT 5'PFS GGG 3'PFS AAC (mixed)
RNA 1: B1 RNA 1
RNA 2: B1 RNA 2 with A28G, U52A, U53A, A54C
B18: target 2 MT 5'PFS AGA 3'PFS ACU (mixed)
RNA 1: B1 RNA 1
RNA 2: B1 RNA 2 with G27A, A28G, G29A, U52A, U53C, A54U
B19: target 2 MT 5'PFS CGG 3'PFS UAC (mixed)
RNA 1: B1 RNA 1
RNA 2: B1 RNA 2 with G27C, A28G, U53A, A54C
B20: target 2 MT 5'PFS AUG 3'PFS CGA (mixed)
RNA 1: B1 RNA 1
RNA 2: B1 RNA 2 with G27A, A28U, U52C, U53G
B21: target 2 MT 5'PFS AUA 3'PFS CUC (mixed)
RNA 1: B1 RNA 1
RNA 2: B1 RNA 2 with G27A, A28U, G29A, U52C, A54C
B22: target 2 MT 5'PFS GGG 3'PFS AAU (mixed)
RNA 1: B1 RNA 1
RNA 2: B1 RNA 2 with A28G, U52A, U53A, A54U
B23: target 2 MT 5'PFS CUC 3'PFS UAU (mixed)
RNA 1: B1 RNA 1
RNA 2: B1 RNA 2 with G27C, A28U, G29C, U53A, A54U
B24: target 2 MT 5'PFS AUA 3'PFS CUG (mixed)
RNA 1: B1 RNA 1
RNA 2: B1 RNA 2 with G27A, A28U, G29A, U52C, A54G
B25: target 2 MT 5'PFS AGA 3'PFS ACG (mixed)
RNA 1: B1 RNA 1
RNA 2: B1 RNA 2 with G27A, A28G, G29A, U52A, U53C, A54G
B26: target 2 MT 5'PFS GUU 3'PFS AGU (mixed)
RNA 1: B1 RNA 1
RNA 2: B1 RNA 2 with A28U, G29U, U52A, U53G, A54U
B27: target 2 MT 5'PFS GGG 3'PFS AAA (mixed)
RNA 1: B1 RNA 1
RNA 2: B1 RNA 2 with A28G, U52A, U53A
B28: target 2 MT 5'PFS AGC 3'PFS CAU (mixed)
RNA 1: B1 RNA 1
RNA 2: B1 RNA 2 with G27A, A28G, G29C, U52C, U53A, A54U
B29: target 2 MT 5'PFS GUU 3'PFS AGG (mixed)
RNA 1: B1 RNA 1
RNA 2: B1 RNA 2 with A28U, G29U, U52A, U53G, A54G
B30: target 2 MT 5'PFS AGC 3'PFS AGU (mixed)
RNA 1: B1 RNA 1
RNA 2: B1 RNA 2 with G27A, A28G, G29C, U52A, U53G, A54U
B31: target 2 MT 5'PFS ACC 3'PFS CUA (mixed)
RNA 1: B1 RNA 1
RNA 2: B1 RNA 2 with G27A, A28C, G29C, U52C
B32: target 2 MT 5'PFS CUC 3'PFS UAA (mixed)
RNA 1: B1 RNA 1
RNA 2: B1 RNA 2 with G27C, A28U, G29C, U53A
B33: target 2 MT 5'PFS AGC 3'PFS AGC (mixed)
RNA 1: B1 RNA 1
RNA 2: B1 RNA 2 with G27A, A28G, G29C, U52A, U53G, A54C
B34: target 1 insG 3' of 4,insU 3' of 1 (mixed)
RNA 1: CACCCGUGCAAAAAUGCAGGGGUCUAAAACUGAGCGGAUAACCUCUCUAUGG
RNA 2: GGGAAUGGAUCCACAUCUACGAAUUCGUACCAUAGAGAGGUUAUCCGCGUCAUCCGAGAUCGGAAGAGCACACGU
B35: target 1 insC 3' of 18,insA 3' of 10 (mixed)
RNA 1: B34 RNA 1
RNA 2: GGGAAUGGAUCCACAUCUACGAAUUCGUACCAUACGAGAGGUUAAUCCGCUCACCGAGAUCGGAAGAGCACACGU
B36: target 1 C6G,C21U (mixed)
RNA 1: B34 RNA 1
RNA 2: GGGAAUGGAUCCACAUCUACGAAUUCGUACUAUAGAGAGGUUAUCGGCUCACCGAGAUCGGAAGAGCACACGU

Numbering of substitutions follows the chain as printed. In names and notes the source's numbering stands.

For this data set, the target named is T1, EsCas13d, nuclease-dead (Eubacterium siraeum, UniProt B0MS50, R295A;H300A;R849A;H854A).
T1 sequence: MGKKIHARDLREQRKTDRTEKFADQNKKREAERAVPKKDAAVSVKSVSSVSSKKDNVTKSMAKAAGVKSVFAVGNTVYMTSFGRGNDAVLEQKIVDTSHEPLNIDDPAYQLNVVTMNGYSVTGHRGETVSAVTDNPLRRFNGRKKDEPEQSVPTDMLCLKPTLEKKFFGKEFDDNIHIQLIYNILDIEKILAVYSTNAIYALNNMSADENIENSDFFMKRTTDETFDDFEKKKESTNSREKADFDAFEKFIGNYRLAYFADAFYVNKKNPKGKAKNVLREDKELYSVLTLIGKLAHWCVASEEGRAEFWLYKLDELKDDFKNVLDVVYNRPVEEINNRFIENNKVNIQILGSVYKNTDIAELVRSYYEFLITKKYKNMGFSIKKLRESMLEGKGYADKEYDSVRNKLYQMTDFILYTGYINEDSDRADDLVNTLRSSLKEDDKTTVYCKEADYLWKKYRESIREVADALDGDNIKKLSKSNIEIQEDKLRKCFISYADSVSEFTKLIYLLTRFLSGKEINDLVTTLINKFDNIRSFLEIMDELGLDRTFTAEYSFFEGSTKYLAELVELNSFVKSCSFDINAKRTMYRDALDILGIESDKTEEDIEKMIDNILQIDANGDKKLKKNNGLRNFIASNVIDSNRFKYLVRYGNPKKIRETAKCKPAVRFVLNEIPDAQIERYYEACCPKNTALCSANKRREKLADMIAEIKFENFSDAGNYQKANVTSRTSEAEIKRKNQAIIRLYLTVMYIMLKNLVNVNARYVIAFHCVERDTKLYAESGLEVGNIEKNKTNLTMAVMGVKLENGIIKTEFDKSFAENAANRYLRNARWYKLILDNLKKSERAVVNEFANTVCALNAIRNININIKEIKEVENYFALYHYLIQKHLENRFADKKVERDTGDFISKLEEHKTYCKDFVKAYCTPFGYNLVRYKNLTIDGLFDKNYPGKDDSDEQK
Put plainly: crRNA (strand 1, pre-loaded); Mg2+; 40 mM Tris-HCl pH 7.5, 150 mM NaCl, 6 mM MgCl2, 1 mM DTT, 0.1% Tween-20, 0.2 mg/ml BSA; 25 C; 10 min per concentration, then washed. Conditions: tags: His6-TwinStrep-SUMO cleaved; N-terminal SNAP kept (SNAP-Surface 488); label: 3' end held by stalled T7 RNA polymerase.
Consider B1, for which the Kd was found to be 14.2 ± 2.2 nM.
As for B2, the figure is 8.9 ± 1 nM; as for B3, 10 ± 1.1 nM.
As for B4, the figure is 7.1 ± 1 nM.
As for B5, the figure is 8.9 ± 1.3 nM; as for B6, 4.3 ± 0.7 nM; as for B7, 7.1 ± 1 nM.
Turning to B8, binding was put at a Kd of 10.5 ± 2.3 nM.
As for B9, the figure is 3.4 ± 0.6 nM; as for B10, 4.4 ± 0.7 nM.
For B11, the affinity, expressed as Kd, was 17.5 ± 3 nM.
Regarding B12, the Kd turned out to be 6.1 ± 1.4 nM.
As for B13, the figure is 5 ± 0.8 nM; as for B14, 2.32 ± 0.23 nM.
As for B15, the figure is 8.7 ± 1.7 nM; as for B16, 11.6 ± 1.2 nM.
As for B17, the figure is 8.7 ± 1 nM; as for B18, 11.6 ± 1.9 nM.
As to B19, the Kd was 5.3 ± 0.6 nM. This Kd is about 2.2-fold lower than that of the molecule before.
As for B20, the figure is 9.4 ± 1 nM; as for B21, 13 ± 4 nM.
As for B22, the figure is 6.2 ± 0.6 nM; as for B23, 1.99 ± 0.13 nM.
As for B24, the figure is 8.8 ± 1.6 nM.
In turn, B25 displayed a Kd of 10.3 ± 1.8 nM.
As for B26, the figure is 9.9 ± 0.8 nM; as for B27, 6.7 ± 0.9 nM; as for B28, 7.3 ± 1.3 nM.
As for B29, the figure is 12.5 ± 0.9 nM; as for B30, 10.2 ± 1.6 nM.
Turning to B31, the affinity, expressed as Kd, was 9.7 ± 2.5 nM.
As for B32, the figure is 2.05 ± 0.35 nM; as for B33, 7.1 ± 1.6 nM; as for B34, 9.1 ± 0.4 nM.
As for B35, the figure is 52 ± 4 nM; as for B36, 5.38 ± 0.17 nM.
